Results from patent publication US20210332146A1 (ACADEMIA SINICA, published 2021).

T1: CD20 (human, UniProt P11836 1-297)
T1 construct: whole, on cells; Target on B-lymphoma cells in flow cytometry; also called CD20 antigen; B-lymphocyte-restricted differentiation antigen
T1 sequence (looked up): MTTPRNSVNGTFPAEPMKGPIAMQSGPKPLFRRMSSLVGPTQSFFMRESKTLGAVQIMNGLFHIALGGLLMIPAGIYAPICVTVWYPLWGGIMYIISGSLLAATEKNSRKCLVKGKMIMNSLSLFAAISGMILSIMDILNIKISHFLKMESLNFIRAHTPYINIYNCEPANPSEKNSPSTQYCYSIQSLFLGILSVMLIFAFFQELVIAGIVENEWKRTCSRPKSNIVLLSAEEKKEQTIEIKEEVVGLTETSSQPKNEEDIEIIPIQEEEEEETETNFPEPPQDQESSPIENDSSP


Legend:
[1] = target: T2, FcγRIIIA recombinant protein (UniProt P08637 17-208, limits assumed); assay: SPR, Biacore T200; antibody captured on anti-human Fab chip, FcγRIIIA injected (12.5-200 nM), single cycle kinetics, 1:1 model
T2 construct: also called FcRIIIA
T2 sequence (P08637 17-208 limits assumed): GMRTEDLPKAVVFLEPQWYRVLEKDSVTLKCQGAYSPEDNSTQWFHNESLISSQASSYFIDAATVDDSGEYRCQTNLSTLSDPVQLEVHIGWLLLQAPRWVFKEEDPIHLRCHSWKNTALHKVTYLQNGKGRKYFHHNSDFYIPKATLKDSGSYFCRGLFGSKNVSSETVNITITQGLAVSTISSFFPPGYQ
Experimental: (§1) FcγRIIIA was transfected into HEK-293 cell line to express recombinant protein. The secreted FcγRIIIA recombinant protein was purified and then diluted to serial concentration in HBS-EP buffer (200 nM, 100 nM, 50 nM, 25 nM, and 12.5 nM). […] A serial titration of FcγRIIIA was injected and bound at the flow rate of […]. Single cycle kinetics data was fitted into 1:1 binding model using Biacore T200 evaluation software to measure the equilibrium constant (Ka/Kd).

[2] = target: T2, FcγRIIIA recombinant protein; assay: SPR, Biacore T200; antibody captured on anti-human Fab chip, FcγRIIIA injected (12.5-200 nM), single cycle kinetics, 1:1 model; Rituxan reference, not glycoengineered; upper end of the range
Experimental: as §1

CD20 [3] = target: T1, CD20; assay: flow cytometry on SUDHL4 (SU-DHL4) cells, MFI against antibody concentration
CD20 [4] = target: T1, CD20; assay: flow cytometry on Ramos cells (CD20+ B lymphoma), MFI against antibody concentration
Experimental: Binding to B-lymphoma cells. The binding of the antibodies was investigated in CD20⁺ B lymphoma cell lines (Ramos and SKW6.4) and analyzed on flow cytometry. The cells in PBS containing 1% fetal bovine serum at 2×10⁵/well on microplate were incubated on ice for 1 hr with antibodies of interest at different concentrations. The cells are washed, re-suspended in the PBS buffer, and incubated with the detecting goat anti-hIgG-Fcγ-PE on ice for 30 min. The cells are washed and subjected to analysis on FACS.

[5] = target: T2, FcγRIIIA recombinant protein; assay: >
Experimental: as §1

[6] = target: T2, FcγRIIIA recombinant protein; assay: SPR as above; category letter explained in the note of Table 4
Experimental: as §1

| Binder | Kd [1] [nM] | EC50 (read off the curve) (CD20 [3]) [µg/mL] | Fold (increase against Rituxan) [6] [fold] | also measured |
| --- | --- | --- | --- | --- |
| Rituximab (antibody, human IgG1, kappa, heterogeneous N-glycans at Asn-297 of the Fc (more than 50 glycoforms; greater than 90% of N-glycans are fucosylated), Chimeric anti-CD20 IgG made in CHO cells, purchased from Genentech; DrugBank DB00073; also called Rituxan; RTX) heavy: not shown light: QIVLSQSPAILSASPGEKVTMTCRASSSVSYIHWFQQKPGSSPKPWIYATSNLASGVPVRFSGSGSGTSYSLTISRVEAEDAATYYCQQWTSNPPTFGGGTKLEIKRTVAAPSVFIFPPSDEQLKSGTASVVCLLNNFYPREAKVQWKVDNALQSGNSQESVTEQDSKDSTYSLSSTLTLSKADYEKHKVYACEVTHQGLSSPVTKSFNRGEC | 100 | ~0.6 | – | Kd [2]: ≤ 300 nM; EC50 (read off the curve) (CD20 [4]): ~0.6 µg/mL |
| anti-CD20 GAb101 (antibody, human IgG1, kappa, homogeneous N-glycan at Asn-297, no core fucose: glycan-101 (Sia2Gal2GlcNAc2Man3GlcNAc) transferred onto the GlcNAc of GAb201; 2,6 sialic acid linkage, the text gives them the other way round) heavy: not shown light: QIVLSQSPAILSASPGEKVTMTCRASSSVSYIHWFQQKPGSSPKPWIYATSNLASGVPVRFSGSGSGTSYSLTISRVEAEDAATYYCQQWTSNPPTFGGGTKLEIKRTVAAPSVFIFPPSDEQLKSGTASVVCLLNNFYPREAKVQWKVDNALQSGNSQESVTEQDSKDSTYSLSSTLTLSKADYEKHKVYACEVTHQGLSSPVTKSFNRGEC | – | ~0.7 | – | Fold (increase against Rituxan) [5]: 30 fold |
| anti-CD20 GAb104 (antibody, human IgG1, kappa, homogeneous N-glycan at Asn-297, no core fucose: glycan-104 (Gal2GlcNAc2Man3GlcNAc) transferred onto the GlcNAc of GAb201, the text gives them the other way round) heavy: not shown light: QIVLSQSPAILSASPGEKVTMTCRASSSVSYIHWFQQKPGSSPKPWIYATSNLASGVPVRFSGSGSGTSYSLTISRVEAEDAATYYCQQWTSNPPTFGGGTKLEIKRTVAAPSVFIFPPSDEQLKSGTASVVCLLNNFYPREAKVQWKVDNALQSGNSQESVTEQDSKDSTYSLSSTLTLSKADYEKHKVYACEVTHQGLSSPVTKSFNRGEC | – | – | > 30 | – |
| anti-CD20 GAb106 (antibody, human IgG1, kappa, homogeneous N-glycan at Asn-297, no core fucose: glycan-106 (GalGlcNAcMan3GlcNAc) transferred onto the GlcNAc of GAb201, the text gives them the other way round) heavy: not shown light: QIVLSQSPAILSASPGEKVTMTCRASSSVSYIHWFQQKPGSSPKPWIYATSNLASGVPVRFSGSGSGTSYSLTISRVEAEDAATYYCQQWTSNPPTFGGGTKLEIKRTVAAPSVFIFPPSDEQLKSGTASVVCLLNNFYPREAKVQWKVDNALQSGNSQESVTEQDSKDSTYSLSSTLTLSKADYEKHKVYACEVTHQGLSSPVTKSFNRGEC | 7 to 30 | – | – | – |
| anti-CD20 GAb102 (antibody, human IgG1, kappa, homogeneous N-glycan at Asn-297, no core fucose: glycan-102 (SiaGal2GlcNAc2Man3GlcNAc) transferred onto the GlcNAc of GAb201, the text gives them the other way round) heavy: not shown light: QIVLSQSPAILSASPGEKVTMTCRASSSVSYIHWFQQKPGSSPKPWIYATSNLASGVPVRFSGSGSGTSYSLTISRVEAEDAATYYCQQWTSNPPTFGGGTKLEIKRTVAAPSVFIFPPSDEQLKSGTASVVCLLNNFYPREAKVQWKVDNALQSGNSQESVTEQDSKDSTYSLSSTLTLSKADYEKHKVYACEVTHQGLSSPVTKSFNRGEC | – | – | > 30 | – |
| anti-CD20 GAb105 (antibody, human IgG1, kappa, homogeneous N-glycan at Asn-297, no core fucose: glycan-105 (GalGlcNAc2Man3GlcNAc) transferred onto the GlcNAc of GAb201, the text gives them the other way round) heavy: not shown light: QIVLSQSPAILSASPGEKVTMTCRASSSVSYIHWFQQKPGSSPKPWIYATSNLASGVPVRFSGSGSGTSYSLTISRVEAEDAATYYCQQWTSNPPTFGGGTKLEIKRTVAAPSVFIFPPSDEQLKSGTASVVCLLNNFYPREAKVQWKVDNALQSGNSQESVTEQDSKDSTYSLSSTLTLSKADYEKHKVYACEVTHQGLSSPVTKSFNRGEC | – | – | > 30 | – |
